Results published in PMC10397247.

What was measured:
Assay in all cases: two-hybrid library CCmax;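 further: natural log of median RNA to DNA barcode read ratio; higher means stronger binding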
4H2617-AA = molecular target: T1, 4H2617-AA; settings: mean of both orientations
T1 chain: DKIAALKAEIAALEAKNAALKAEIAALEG

4H2949-AA = molecular target: T2, 4H2949-AA; settings: mean of both orientations
T2 chain: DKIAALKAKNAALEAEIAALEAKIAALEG

4H3427-AA = molecular target: T3, 4H3427-AA; settings: mean of both orientations
T3 chain: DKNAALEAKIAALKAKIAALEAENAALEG

4H906-AA = molecular target: T4, 4H906-AA; settings: mean of both orientations
T4 chain: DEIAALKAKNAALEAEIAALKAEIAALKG

4H454-AA = molecular target: T5, 4H454-AA; settings: mean of both orientations
T5 chain: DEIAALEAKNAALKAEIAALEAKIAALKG

4H234-AA = molecular target: T6, 4H234-AA; settings: mean of both orientations
T6 chain: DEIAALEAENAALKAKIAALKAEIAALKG

4H2393-AA = molecular target: T7, 4H2393-AA
T7 chain: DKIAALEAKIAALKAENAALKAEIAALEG

4H2642-AA = molecular target: T8, 4H2642-AA; settings: mean of both orientations
T8 chain: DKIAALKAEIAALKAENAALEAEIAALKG

4H3343-AA = molecular target: T9, 4H3343-AA; settings: mean of both orientations
T9 chain: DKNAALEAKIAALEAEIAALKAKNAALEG

4H993-AA = molecular target: T10, 4H993-AA; settings: mean of both orientations
T10 chain: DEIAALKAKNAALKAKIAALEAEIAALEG

4H780-AA = molecular target: T11, 4H780-AA
T11 chain: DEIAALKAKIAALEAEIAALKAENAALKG

4H2754-AA = molecular target: T12, 4H2754-AA; settings: mean of both orientations
T12 chain: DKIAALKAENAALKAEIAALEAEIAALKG

4H3844-AA = molecular target: T13, 4H3844-AA; settings: mean of both orientations
T13 chain: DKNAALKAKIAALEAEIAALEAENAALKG

4H2575-AA = molecular target: T14, 4H2575-AA; settings: mean of both orientations
T14 chain: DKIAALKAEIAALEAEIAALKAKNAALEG

4H678-AA = molecular target: T15, 4H678-AA; settings: mean of both orientations
T15 chain: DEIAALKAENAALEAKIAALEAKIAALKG

4H429-AA = molecular target: T16, 4H429-AA; settings: mean of both orientations
T16 chain: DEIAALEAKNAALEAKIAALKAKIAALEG

4H2883-AA = molecular target: T17, 4H2883-AA; settings: mean of both orientations
T17 chain: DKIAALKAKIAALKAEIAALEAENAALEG

4H605-AA = molecular target: T18, 4H605-AA; settings: mean of both orientations
T18 chain: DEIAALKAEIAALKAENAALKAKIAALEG

4H48-AA = molecular target: T19, 4H48-AA; settings: mean of both orientations
T19 chain: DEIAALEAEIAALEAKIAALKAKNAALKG

4H2729-AA = molecular target: T20, 4H2729-AA; settings: mean of both orientations
T20 chain: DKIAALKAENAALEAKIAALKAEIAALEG

4H2505-AA = molecular target: T21, 4H2505-AA; settings: mean of both orientations
T21 chain: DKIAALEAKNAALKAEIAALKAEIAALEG

4H3627-AA = molecular target: T22, 4H3627-AA; settings: mean of both orientations
T22 chain: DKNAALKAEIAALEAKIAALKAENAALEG

4H717-AA = molecular target: T23, 4H717-AA; settings: mean of both orientations
T23 chain: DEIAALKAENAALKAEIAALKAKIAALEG

4H2466-AA = molecular target: T24, 4H2466-AA; settings: mean of both orientations
T24 chain: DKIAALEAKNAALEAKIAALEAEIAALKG

4H317-AA = molecular target: T25, 4H317-AA; settings: mean of both orientations
T25 chain: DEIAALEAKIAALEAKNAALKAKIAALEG

4H2837-AA = molecular target: T26, 4H2837-AA; settings: mean of both orientations
T26 chain: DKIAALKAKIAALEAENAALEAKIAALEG

4H342-AA = molecular target: T27, 4H342-AA; settings: mean of both orientations
T27 chain: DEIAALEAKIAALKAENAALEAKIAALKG

4H2277-AA = molecular target: T28, 4H2277-AA
T28 chain: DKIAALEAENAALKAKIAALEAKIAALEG

4H2354-AA = molecular target: T29, 4H2354-AA; settings: mean of both orientations
T29 chain: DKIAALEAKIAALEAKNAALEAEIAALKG

4H3112-AA = molecular target: T30, 4H3112-AA; settings: mean of both orientations
T30 chain: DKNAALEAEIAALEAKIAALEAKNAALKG

4H335-AA = molecular target: T31, 4H335-AA; settings: mean of both orientations
T31 chain: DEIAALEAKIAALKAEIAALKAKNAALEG

4H3921-AA = molecular target: T32, 4H3921-AA; settings: mean of both orientations
T32 chain: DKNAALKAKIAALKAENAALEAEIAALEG

4H2944-AA = molecular target: T33, 4H2944-AA; settings: mean of both orientations
T33 chain: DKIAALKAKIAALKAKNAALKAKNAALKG

4H794-AA = molecular target: T34, 4H794-AA; settings: mean of both orientations
T34 chain: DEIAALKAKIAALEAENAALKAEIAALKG

4H566-AA = molecular target: T35, 4H566-AA; settings: mean of both orientations
T35 chain: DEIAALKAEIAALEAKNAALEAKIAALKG

4H3606-AA = molecular target: T36, 4H3606-AA; settings: mean of both orientations
T36 chain: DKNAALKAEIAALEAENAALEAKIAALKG

4H3655-AA = molecular target: T37, 4H3655-AA; settings: mean of both orientations
T37 chain: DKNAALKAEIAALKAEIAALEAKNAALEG

4H881-AA = molecular target: T38, 4H881-AA; settings: mean of both orientations
T38 chain: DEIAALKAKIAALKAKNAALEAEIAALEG

B1: 4H2277-AA (peptide)
chain: DKIAALEAENAALKAKIAALEAKIAALEG
interaction score (4H2617-AA): -1.68 | interaction score (4H2949-AA): 0.749 | interaction score (4H3427-AA): -1.51 | interaction score (4H906-AA): -1.51 | interaction score (4H454-AA): 1.29 | interaction score (4H234-AA): -0.0407 | interaction score (4H2393-AA): -1.39 | interaction score (4H2642-AA): -0.59 | interaction score (4H3343-AA): -1.26 | interaction score (4H993-AA): 0.398 | interaction score (4H780-AA): -1.36 | interaction score (4H2754-AA): 0.512 | interaction score (4H3844-AA): -1.39 | interaction score (4H2575-AA): -1.59 | interaction score (4H678-AA): 0.351 | interaction score (4H429-AA): -0.713 | interaction score (4H2883-AA): -1.6 | interaction score (4H605-AA): -1.38 | interaction score (4H48-AA): -1.36 | interaction score (4H2729-AA): 0.856 | interaction score (4H2505-AA): -0.635 | interaction score (4H3627-AA): -1.28 | interaction score (4H717-AA): -0.927 | interaction score (4H2466-AA): -1.07 | interaction score (4H317-AA): -1.02 | interaction score (4H2837-AA): -1.08 | interaction score (4H342-AA): -0.907 | interaction score (4H2277-AA): 1.95 | interaction score (4H2354-AA): -1.26 | interaction score (4H3112-AA): -1.43 | interaction score (4H335-AA): -1.2 | interaction score (4H3921-AA): -1.56 | interaction score (4H2944-AA): -1.56 | interaction score (4H794-AA): -1.24 | interaction score (4H566-AA): -0.827 | interaction score (4H3606-AA): -1.85 | interaction score (4H3655-AA): -1.32 | interaction score (4H881-AA): -1.05
